Test results published in patent US20230013784A1 (JIANGSU HENGRUI MEDICINE, published 2023).

T1: human CEA protein on the cell surface of MKN45 human gastric cancer cells (human, UniProt P06731 35-685)
T1 construct: whole, on cells; GPI-anchored glycoprotein; also called CEACAM-5; CD66e
T1 sequence (looked up): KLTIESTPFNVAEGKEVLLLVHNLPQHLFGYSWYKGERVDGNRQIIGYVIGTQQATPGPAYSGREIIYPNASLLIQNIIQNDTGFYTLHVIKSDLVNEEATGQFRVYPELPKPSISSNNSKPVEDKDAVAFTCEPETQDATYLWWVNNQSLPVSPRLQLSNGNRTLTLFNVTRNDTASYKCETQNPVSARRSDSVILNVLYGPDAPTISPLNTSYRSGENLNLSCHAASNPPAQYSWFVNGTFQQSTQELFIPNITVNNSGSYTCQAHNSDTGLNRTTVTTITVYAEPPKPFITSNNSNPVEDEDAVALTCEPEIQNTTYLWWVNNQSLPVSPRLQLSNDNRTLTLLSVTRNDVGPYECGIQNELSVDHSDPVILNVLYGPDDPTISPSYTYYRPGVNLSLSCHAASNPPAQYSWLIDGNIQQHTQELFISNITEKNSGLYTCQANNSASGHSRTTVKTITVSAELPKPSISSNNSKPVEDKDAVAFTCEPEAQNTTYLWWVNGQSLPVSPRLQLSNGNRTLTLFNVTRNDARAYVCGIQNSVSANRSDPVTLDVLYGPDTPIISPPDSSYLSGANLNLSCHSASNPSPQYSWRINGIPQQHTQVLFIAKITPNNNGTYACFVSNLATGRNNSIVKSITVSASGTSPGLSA


These binders were tested against T1, human CEA protein on the cell surface … (assay: FACS on MKN45; with/without 5 ug/ml sCEA as competitor).
Method: In order to detect whether the antibody preferentially binds to CEA present on the surface of cell membrane in the presence of sCEA (as shown in SEQ ID NO:1), the inventors pre-incubated a gradient of diluted antibodies with a certain concentration of sCEA (5 μg/ml) for 30 min, then MKN45 cells were collected (human gastric cancer cells, Nanjing Kebai Biotechnology Co., Ltd., Cat #CBP60488) and loaded into 96-well plate. The gradient of diluted antibodies as well as the mixture of pre-incubated antibody and sCEA were separately added to each well, incubated at 4° C. for 60 min and centrifuged to remove the supernatant. Pre-cooled PBS containing a final concentration of 10% FBS was added to wash the cells, repeated twice. 50 μl of 1:200 diluted secondary antibody Alexa Fluor@488 goat anti-human IgG (H+L) (Lifetechologies, Cat #A11013) was added, incubated at 4° C. in dark for 45 min and centrifuged to remove the supernatant. 250 μl of pre-cooled PBS containing a final concentration of 10% FBS was added to wash the cells; repeated twice. 100 μl of pre-cooled PBS was added to each well for resuspension. Flow cytometer (FACS) was used for detection to obtain the fluorescence signal value.

maximum fluorescence signal ratio (without sCEA v.s. with sCEA) | Binder
1.08 | mAb47 (antibody, V domains shown, murine hybridoma antibody) VH: QIQLVQSGPELKKPGETVKISCKASGYTFTTYGMSWVKQAPGKGLKWMGWINTYSGVPTYADDFKGRFAFSLETSASTAYLQINNLKNEDTATYFCARRGNYGRWDFDVWGTGTTVTVSS VL: EIVLTQSPALMAASPGEKVTITCSVSSTISSSNLHWYQQKSETSPKPWIYGTSNLASGVPVRFSGSGSGTSYSLTISSMEAEDAATYYCQQWSIYPLTFGAGTKLELK
1.43 | mAb63 (antibody, V domains shown, murine hybridoma antibody) VH: EVQLQQSGPELVKPGASVKMSCKASGYTFTDFYMNWVRQSHGKSLEWIGDIFPKNGNTDYNRKFKDKATLTVDKSSNTVYMEFRSLTLEDSAIYFCARSGYGNYVFDYWGQGTIFTVSS VL: DVQMTQTPSALSASLGDRVTISCRTSQDINIYLNWYQQKPDGTVKLLIYYRSGLLSGVPSRFSGSGSGTDYSLTISNLEPEDIATYFCQQGNTLPPTFGGGTKLEIK
1.02 | mAb103 (antibody, V domains shown, murine hybridoma antibody) VH: QIQLVQSGPELKKPGETVKISCKASGYTFTTYGVIWVKQAPGKGLKWMGWINTYSGVPTYADDFKGRFAFSLETSASTAFLQINNLKNEDTATYFCARKKTLTTVTPWFAYWGQGTLVTVSA VL: DLVVTQSSSASFSLGASAKLTCTLSSQHSTYTIEWYQQQPLKPPKYVMELKKDGSHSTGDGIPDRFSGSSSGADRYLTISNIQPEDEAIYICGVGNTIKEQFVYVFGGGTKVTVL
